# Assay results published in the supplement of paper PMC11246515.
# ± gives the standard deviation of the averaged measurements.
# Test: total protein half-life in vivo (active degradation + dilution); higher = more stable protein
# [1] = E. coli NCM3722 delta-clpP delta-lon delta-hslV, growth: N-lim chemostat, doubling time 6 h
# [2] = E. coli NCM3722 delta-clpP, growth: N-lim chemostat, doubling time 6 h
# [3] = E. coli NCM3722 delta-hslV, growth: N-lim chemostat, doubling time 6 h
# [4] = E. coli NCM3722 delta-lon, growth: N-lim chemostat, doubling time 6 h
# [5] = E. coli NCM3722 delta-smpB, growth: N-lim chemostat, doubling time 6 h
# [6] = wild type E. coli NCM3722, growth: C-lim chemostat, doubling time 3 h
# [7] = wild type E. coli NCM3722, growth: C-lim chemostat, doubling time 6 h
# [8] = wild type E. coli NCM3722, growth: C-lim chemostat, doubling time 12 h
# [9] = wild type E. coli NCM3722, growth: N-lim chemostat, doubling time 6 h
# [10] = wild type E. coli NCM3722, growth: N-lim chemostat, doubling time 12 h
# [11] = wild type E. coli NCM3722, growth: P-lim chemostat, doubling time 6 h
# [12] = wild type E. coli NCM3722, growth: P-lim chemostat, doubling time 12 h
Sequence,total protein half-life in vivo [1] [h],total protein half-life in vivo [2] [h],total protein half-life in vivo [3] [h],total protein half-life in vivo [4] [h],total protein half-life in vivo [5] [h],total protein half-life in vivo [6] [h],total protein half-life in vivo [7] [h],total protein half-life in vivo [8] [h],total protein half-life in vivo [9] [h],total protein half-life in vivo [10] [h],total protein half-life in vivo [11] [h],total protein half-life in vivo [12] [h]
MIVKKLTLPKDFLWGGAVAAHQVEGGWNKGGKGPSICDVLTGGAHGVPREITKEVLPGKYYPNHEAVDFYGHYKEDIKLFAEMGFKCFRTSIAWTRIFPKGDEAQPNEEGLKFYDDMFDELLKYNIEPVITLSHFEMPLHLVQQYGSWTNRKVVDFFVRFAEVVFERYKHKVKYWMTFNEINNQRNWRAPLFGYCCSGVVYTEHENPEETMYQVLHHQFVASALAVKAARRINPEMKVGCMLAMVPLYPYSCNPDDVMFAQESMRERYVFTDVQLRGYYPSYVLNEWERRGFNIKMEDGDLDVLREGTCDYLGFSYYMTNAVKAEGGTGDAISGFEGSVPNPYVKASDWGWQIDPVGLRYALCELYERYQRPLFIVENGFGAYDKVEEDGSINDDYRIDYLRAHIEEMKKAVTYDGVDLMGYTPWGCIDCVSFTTGQYSKRYGFIYVNKHDDGTGDMSRSRKKSFNWYKEVIASNGEKL,5.79 ± 0.69,5.12 ± 0.34,5.44 ± 0.26,5.46 ± 0.0062,4.985 ± 0.0067,3.08 ± 0.12,5.89 ± 0.32,10.03 ± 0.031,4.85 ± 0.075,9.46 ± 0.4,6.17 ± 0.47,11.1 ± 0.41
MLKIIRAGMYTTVQDGGRHGFRQSGISHCGALDMPALRIANLLVGNDANAPALEITLGQLTVEFETDGWFALTGAGCEARLDDNAVWTGWRLPMKAGQRLTLKRPQHGMRSYLAVAGGIDVPPVMGSCSTDLKVGIGGLEGRLLKDGDRLPIGKSKRDSMEAQGVKQLLWGNRIRALPGPEYHEFDRASQDAFWRSPWQLSSQSNRMGYRLQGQILKRTTDRELLSHGLLPGVVQVPHNGQPIVLMNDAQTTGGYPRIACIIEADMYHLAQIPLGQPIHFVQCSLEEALKARQDQQRYFEQLAWRLHNEN,5.37 ± 0.055,5.3 ± 0.29,5.076 ± 0.012,5.07 ± 0.35,4.88 ± 0.36,3.12 ± 0.1,5.73 ± 0.14,10.1 ± 0.82,5.25 ± 0.34,8.94 ± 0.26,5.79 ± 0.12,11.26 ± 0.079
MSEPMMWLLVRGVWETLAMTFVSGFFGFVIGLPVGVLLYVTRPGQIIANAKLYRTVSAIVNIFRSIPFIILLVWMIPFTRVIVGTSIGLQAAIVPLTVGAAPFIARMVENALLEIPTGLIEASRAMGATPMQIVRKVLLPEALPGLVNAATITLITLVGYSAMGGAVGAGGLGQIGYQYGYIGYNATVMNTVLVLLVILVYLIQFAGDRIVRAVTRK,6.59,6.5,6.24,5.881 ± 0.054,5.76 ± 0.38,3.25 ± 0.28,6.38,11.6,6.095 ± 0.06,11.6 ± 1.8,6.63 ± 0.78,
MSHQKIIQDLIAWIDEHIDQPLNIDVVAKKSGYSKWYLQRMFRTVTHQTLGDYIRQRRLLLAAVELRTTERPIFDIAMDLGYVSQQTFSRVFRRQFDRTPSDYRHRL [P0A9E2],6.13 ± 1.3,,,,,,,,,,,
MAIRLYKLAVALGVFIVSAPAFSHGHHSHGKPLTEVEQKAANGVFDDANVQNRTLSDWDGVWQSVYPLLQSGKLDPVFQKKADADKTKTFAEIKDYYHKGYATDIEMIGIEDGIVEFHRNNETTSCKYDYDGYKILTYKSGKKGVRYLFECKDPESKAPKYIQFSDHIIAPRKSSHFHIFMGNDSQQSLLNEMENWPTYYPYQLSSEEVVEEMMSH,5.56,,7.32 ± 0.35,,,3.24 ± 0.14,6.23 ± 0.17,12.8 ± 0.55,,> 16,5.89 ± 0.14,
MERCGWVSQDPLYIAYHDNEWGVPETDSKKLFEMICLEGQQAGLSWITVLKKRENYRACFHQFDPVKVAAMQEEDVERLVQDAGIIRHRGKIQAIIGNARAYLQMEQNGEPFVDFVWSFVNHQPQVTQATTLSEIPTSTSASDALSKALKKRGFKFVGTTICYSFMQACGLVNDHVVGCCCYPGNKP,5.26 ± 0.55,2.52 ± 0.12,2.48 ± 0.17,4.36 ± 0.28,1.72 ± 0.98,,1.68,3.77 ± 2,2.53 ± 0.58,3.37,,
MPYLLEMKNITKTFGSVKAIDNVCLRLNAGEIVSLCGENGSGKSTLMKVLCGIYPHGSYEGEIIFAGEEIQASHIRDTERKGIAIIHQELALVKELTVLENIFLGNEITHNGIMDYDLMTLRCQKLLAQVSLSISPDTRVGDLGLGQQQLVEIAKALNKQVRLLILDEPTASLTEQETSILLDIIRDLQQHGIACIYISHKLNEVKAISDTICVIRDGQHIGTRDAAGMSEDDIITMMVGRELTALYPNEPHTTGDEILRIEHLTAWHPVNRHIKRVNDVSFSLKRGEILGIAGLVGAGRTETIQCLFGVWPGQWEGKIYIDGKQVDIRNCQQAIAQGIAMVPEDRKRDGIVPVMAVGKNITLAALNKFTGGISQLDDAAEQKCILESIQQLKVKTSSPDLAIGRLSGGNQQKAILARCLLLNPRILILDEPTRGIDIGAKYEIYKLINQLVQQGIAVIVISSELPEVLGLSDRVLVMHEGKLKANLINHNLTQEQVMEAALRSEHHVEKQSV,,,,,,2.9 ± 0.53,,7.37 ± 2.8,,,,9.14
MTKQVKIYHNPRCSKSRETLNLLKENGVEPEVVLYLETPADAATLRDLLKILGMNSARELMRQKEDLYKELNLADSSLSEEALIQAMVDNPKLMERPIVVANGKARIGRPPEQVLEIVG,,5.8,3.65 ± 0.025,4.45 ± 0.96,,3.47 ± 0.39,5.12 ± 0.37,7.332 ± 0.073,2.58 ± 0.029,4.7 ± 1.2,3.87 ± 0.41,8.07 ± 0.2
